Experimental data as given in US20110052595A1 (Kyowa Kirin, published 2011).
Each block holds one binder with its values, some of them ahead of it.

Experiments:
[1] = target: bovine serum albumin (BSA) (bovine, UniProt P02769 25-607); experiment: binding ELISA
[2] = target: T1, recombinant secretory human HB-EGF manufactured by R & D System (catalogue number 259-HE/CF) (human, UniProt Q99075 63-148, biotin-labeled with EZ-Link Sulfo-NHS-Biotin in the EGFR binding inhibition assay only); experiment: Biacore T-100, HB-EGF immobilized on CM5 chip, antibody as analyte
T1 construct: Bought protein; also called recombinant human HB-EGF; secretory HB-EGF
Procedure: In order to analyze binding activities of a mouse antibody KM3566 and the chimeric antibody KM3966 for human HB-EGF in reaction kinetics, the binding activity measurement was carried out using Biacore. All of the following operations were carried out using Biacore T-100 (manufactured by Biacore). Human HB-EGF (manufactured by R & D) prepared into 5 μg/ml using HBS-EP Buffer (manufactured by Biacore) was immobilized onto a CM 5 sensor chip (manufactured by Biacore) to a level of 80 RU (resonance unit) by an amine coupling method. Thereafter, each antibody diluted 5-fold from 9 nmol/l was let flow on the chip at a rate of 10 μl/min, and by analyzing the sensor-gram at each concentration, the association rate constant and dissociation rate constant of each antibody for human HB-EGF were calculated.
It was confirmed based on the results that both antibodies almost the same binding activity for human HB-EGF.

[3] = target: T2, mutant HB-EGF in which serine at position 147 from the N-terminal was substituted with threonine (human, UniProt Q99075 63-148); experiment: cell ELISA, biotin-labeled antibody on mutant HB-EGF gene-transferred LMTK cells, corrected for expression with H-6
T2 construct: Transiently expressed on mouse LMTK cells; also called S147T
T2 chain: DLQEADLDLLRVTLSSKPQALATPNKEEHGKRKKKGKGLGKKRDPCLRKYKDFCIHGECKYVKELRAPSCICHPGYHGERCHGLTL
Procedure: Firstly, biotin-labeled anti-HB-EGF antibody (KM3566, KM3579 or KM3966) diluted to 2 μg/ml with a binding buffer (prepared by adding nonessential amino acids, 20 mM HEPES-NaOH (pH 7.2) and 10% fetal bovine serum to Ham's F12) was allowed to react at 4° C. for 2 hours with 1×10⁵ cells of the mutant HB-EGF gene-transferred cell, human/mouse chimeric HB-EGF gene-transferred cell or mock. After the reaction, the cells were washed twice with an ice-cooled washing buffer (prepared by adding 0.5 mM CaCl₂, 0.5 mM MgCl₂ and 0.1% fetal bovine serum to PBS) and then once with PBS(+) (prepared by adding 0.5 mM CaCl₂ and 0.5 mM MgCl₂ to PBS). A formaldehyde solution diluted to 1.8% with PBS(+) was added to the washed cells, and the cells were fixed at 4° C. for 20 minutes. […] By carrying out development of color using a peroxidase detection kit (ELISA POD Substrate OPD Kit, manufactured by Nacalai Tesque), the absorbance at 492 nm was measured and the activity of cell-bonded HRP was measured.
A value obtained by subtracting the absorbance for mock from the absorbance for each of the various mutant HB-EGF gene-transferred cells or human/mouse chimeric HB-EGF gene-transferred cells of the anti-HB-EGF antibody was used as the value A. […]

bovine serum albumin (BSA), sequence (P02769 25-607 limits assumed): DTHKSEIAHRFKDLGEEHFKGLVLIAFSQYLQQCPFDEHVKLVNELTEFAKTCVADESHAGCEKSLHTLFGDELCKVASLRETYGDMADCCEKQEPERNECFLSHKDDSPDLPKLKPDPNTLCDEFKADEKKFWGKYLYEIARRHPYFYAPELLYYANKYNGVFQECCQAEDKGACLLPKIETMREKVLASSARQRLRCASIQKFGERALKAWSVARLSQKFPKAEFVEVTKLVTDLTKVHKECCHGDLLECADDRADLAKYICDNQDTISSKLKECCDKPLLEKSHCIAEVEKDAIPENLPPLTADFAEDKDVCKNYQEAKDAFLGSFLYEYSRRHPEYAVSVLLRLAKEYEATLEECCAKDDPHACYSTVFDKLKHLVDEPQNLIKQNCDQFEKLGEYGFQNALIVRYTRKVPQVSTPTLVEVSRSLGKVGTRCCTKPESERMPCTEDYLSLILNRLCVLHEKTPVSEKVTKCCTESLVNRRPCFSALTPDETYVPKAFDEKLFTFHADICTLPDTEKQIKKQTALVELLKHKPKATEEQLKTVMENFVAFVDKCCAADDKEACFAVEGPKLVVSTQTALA

binding result [1]: no binding
kon [2]: 270000 M⁻¹ s⁻¹
B1: anti-HB-EGF monoclonal antibody KM3566 (antibody, V domains shown)
VH: QVQLQQSGTELARPGASVKLSCKASGYTFRTYGITWVKQRTGQGLEWIGEIFPGSGNTYYNEKFKGKASLTADKSSSTAYMQLSSLTSEDSAVYFCARESFSDGYYGYFDYWGQGTTLTVSS
VL: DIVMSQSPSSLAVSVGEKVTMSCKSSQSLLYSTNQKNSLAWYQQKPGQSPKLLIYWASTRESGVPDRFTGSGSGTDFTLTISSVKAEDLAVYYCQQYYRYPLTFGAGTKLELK
notes: also called anti-HB-EGF mouse antibody KM3566; monoclonal antibody produced by hybridoma KM3566 (FERM BP-10490)

relative binding activity (ratio to pRTHGC-6) [3]: ~0.33 fraction of binding to pRTHGC-6
kon [2]: 240000 M⁻¹ s⁻¹
B2: anti-HB-EGF chimeric antibody KM3966 (antibody, V domains shown)
VH: B1 VH
VL: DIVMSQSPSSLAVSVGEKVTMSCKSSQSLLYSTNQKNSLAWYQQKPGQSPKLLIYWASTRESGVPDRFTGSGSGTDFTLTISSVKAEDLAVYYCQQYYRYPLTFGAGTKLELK
notes: also called human chimeric antibody KM3966; anti-HB-EGF monoclonal antibody KM3966
